Literature values, collected in paper PMC4072998.

Key:
Glu14 [1] = target: T1, Glu14 (UniProt position 14, GAILAEVIGTT); experiment: other
Glu14 [2] = target: T1, Glu14; experiment: kinetics; details: pre-equilibrium; free protein binding substrate
Asp14 = Asp14 (UniProt position 14, GAILADVIGTT); experiment: kinetics; details: pre-equilibrium; free protein binding substrate

Substance	pKa (Glu14 [1]; equilibrium, substrate-induced deprotonation)	pKa (Glu14 [1]; substrate-free protein competing for H+ versus TPP+)	pKa (Glu14 [2])	pKa (Asp14)
EmrE (small multidrug resistance transporter) (Escherichia coli)	8.3-8.5	7-8	~7.3	–
EmrE E14D mutant (Escherichia coli; E14D)	–	–	–	5.8
